Substitutions are numbered along the chain they refer to. “And” between values parts separate entries of the source, which are not always exact repeats. Identical values can stand only once.
Key:
[1] = target: T1, human EGFR (cell surface) (human, UniProt P00533 25-1210); experiment: FACS competition, competitor W5626-2C10-z5; lower panel 'Binning with W5626-2C10-z5'; cells not named on the sheet, A431 in the example
T1 construct: whole, on cells; also called W562-CHO-K1.hPro1.E9 cells; A431 cells

[2] = target: T2, human EGFRvIII (cell surface) (human, UniProt P00533 25-1210); experiment: FACS on EGFRvIII transfected cells, anti-c-Myc-biotin and streptavidin-PE
T2 construct: whole, on cells; also called hEGFRIII; EGFR variant III

[3] = target: T1, human EGFR (cell surface); experiment: FACS competition, competitor W5626-2C2-z22; upper panel 'Binning with W5626-2C2-z22'; cells not named on the sheet, A431 in the example
[4] = target: Factor Eight; experiment: non-specific binding ELISA, 10 µg/ml VHH on coated antigen
Procedure: (§1) Non-specific binding ELISA was performed in 96-well high binding plates (Nunc-Immuno Plate, Thermo Scientific). The plate was coated with various antigens at 2 μg/mL overnight at 4° C. […] The plates were subsequently incubated with the secondary antibody Goat anti-cMyc-HRP (Bethyl) for additional 1 hour. The HRP signal was detected by adding TMB substrate and the reaction was stopped after 12 minutes using 2M HCl. The absorbance at 450 nm was read using a microplate reader (Molecular Device). All incubation steps were performed at room temperature. The plate was washed with PBST (0.05% Tween20-PBS) between each step.

[5] = target: FGFR.his; experiment: as above
Procedure: as §1

[6] = target: CTLA4.his; experiment: as above
Chain of CTLA4.his (P16410 36-161): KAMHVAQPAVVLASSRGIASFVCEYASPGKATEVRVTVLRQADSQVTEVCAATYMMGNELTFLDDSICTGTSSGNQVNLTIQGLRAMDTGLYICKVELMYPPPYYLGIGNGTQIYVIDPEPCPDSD
Procedure: as §1

[7] = target: W317-hPro1.ECD.his; experiment: as above
Procedure: as §1

[8] = target: T3, HER3.his (Homo sapiens (Human), UniProt P21860 20-643); experiment: as above
Procedure: as §1

[9] = target: OX40.his; experiment: as above
Chain of OX40.his (P43489 29-214): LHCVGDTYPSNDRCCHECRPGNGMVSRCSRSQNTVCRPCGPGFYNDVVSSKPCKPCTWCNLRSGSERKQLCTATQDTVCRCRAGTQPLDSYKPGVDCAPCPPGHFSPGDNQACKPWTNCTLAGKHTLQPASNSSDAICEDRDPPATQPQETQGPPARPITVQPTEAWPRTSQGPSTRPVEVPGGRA
Procedure: as §1

[10] = target: CD3.his; experiment: as above
Procedure: as §1

[11] = target: CD22.his; experiment: as above
Procedure: as §1

[12] = target: T4, HSA (UniProt P02768 25-609); experiment: as above
Procedure: as §1

[13] = target: PD-1.his; experiment: as above
Chain of PD-1.his (Q15116 25-170): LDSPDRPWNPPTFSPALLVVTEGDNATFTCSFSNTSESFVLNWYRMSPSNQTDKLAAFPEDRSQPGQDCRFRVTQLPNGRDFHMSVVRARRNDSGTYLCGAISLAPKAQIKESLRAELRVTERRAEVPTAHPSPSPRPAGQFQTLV
Procedure: as §1

[14] = target: T5, 4-1BB.his (Homo sapiens (Human), UniProt Q07011 24-186); experiment: as above
T5 sequence (Q07011 24-186 limits assumed): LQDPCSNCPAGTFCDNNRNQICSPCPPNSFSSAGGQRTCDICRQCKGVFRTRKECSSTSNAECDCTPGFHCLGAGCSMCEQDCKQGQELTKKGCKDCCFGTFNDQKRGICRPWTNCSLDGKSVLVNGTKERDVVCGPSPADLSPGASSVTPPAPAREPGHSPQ
Procedure: as §1

[15] = target: CD40; experiment: as above
Chain of CD40 (P25942 21-193): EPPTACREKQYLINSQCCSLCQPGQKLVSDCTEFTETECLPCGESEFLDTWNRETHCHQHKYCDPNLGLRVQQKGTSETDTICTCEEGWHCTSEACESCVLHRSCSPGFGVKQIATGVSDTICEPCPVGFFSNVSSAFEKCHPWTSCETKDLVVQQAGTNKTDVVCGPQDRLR
Procedure: as §1

[16] = target: VEGF.his; experiment: as above
Procedure: as §1

[17] = target: CD147; experiment: as above
Procedure: as §1

[18] = target: T3, HER3.his; experiment: ELISA, antigen coated at 2 µg/mL, anti-cMyc-HRP detection
Procedure: as §1

[19] = target: T4, HSA; experiment: as above
Procedure: as §1

[20] = target: T5, 4-1BB.his; experiment: as above
Procedure: as §1

[21] = target: T1, human EGFR (cell surface); experiment: FACS competition with EGF-biotin (50 ng/ml) on A431 cells
Procedure: EGFR-expressing A431 cells were routinely maintained in DMEM containing 10% FBS, 10 mM HEPES and L-glutamine. 10⁵ cells per well were added to each well of a 96-well plate and centrifuged at 210 g for 5 minutes at 4° C. before the supernatant was removed. Serial dilutions of test antibodies were added to the pelleted cells and incubated for 1 hour at 4° C. […] MFI of the cells was measured by flow cytometry and analyzed by FlowJo.

[22] = target: T1, human EGFR (cell surface); experiment: FACS on cells carrying human EGFR
Procedure: (§2) The binding of antibodies to cell surface EGFR was assessed by FACS with EGFR transfected cells and A431 cell line, which over expresses human EGFR. 1×10⁵ cells/well were plated in a 96-well plate and centrifuged at 210 g for 5 minutes at 4° C. After removing the supernatant, the cell pellets were re-suspended with serial dilutions of testing purified antibodies in 1% BSA-PBS and incubated for 1 hour at 4° C., followed by incubation with FITC conjugated goat anti-human IgG (Jackson ImmunoResearch) at 4° C. for 1 hour. Two times of washing with 200 μl/well 1% BSA-PBS were applied between each step. Finally, the cells were resuspended in 100 μl 1% BSA-PBS for flow cytometry analysis (Intellicyt).

[23] = target: T6, mouse EGFR (cell surface) (mouse, UniProt Q01279 25-1210); experiment: FACS on cells expressing mouse EGFR
T6 construct: whole, on cells; also called W562-CHO-K1.mProl.F3 cells
Procedure: as §2

[24] = target: T7, Macaca fascicularis EGFR (cell surface) (Macaca fascicularis, UniProt A0A2K5WK39 25-1210); experiment: FACS on cells expressing monkey EGFR
T7 construct: whole, on cells; also called monkey EGFR; cyno EGFR
Procedure: as §2

[25] = target: T1, human EGFR (cell surface); experiment: FACS binding to A431 cells (printed 'A432' in paragraph 253) after 0, 1, 4, 7 and 14 days in human serum at 37 C; upper panel
Procedure: Freshly collected human blood was incubated in polystyrene tubes without anticoagulant for 30 minutes at room temperature. The Serum was collected after centrifugation the blood at 4000 rpm for 10 minutes. Repeat the centrifugation until the serum was clarifying. Gently mix antibodies with serum and ensure the serum content >95%. The mix aliquots were incubated at 37° C. for 0 day, 1 day, 4 days, 7 days and 14 days, respectively. At the indicated time point the samples were quickly-frozen in liquid nitrogen and stored at −80° C. until analysis. The cell bindings of the serial dilutions of the antibody samples to A432 cells were analyzed by FACS. Four-parameter non-linear regression analysis was used to obtain EC₅₀ values for cell binding using GraphPad Prism 5 software (GraphPad Software, La Jolla, Calif.).

[26] = target: T1, human EGFR (cell surface); experiment: FACS affinity on transfected cells, quantitative beads
Procedure: (§3) Human, cyno, mouse EGFR and human EGFRvIII transfected cells were transferred in to 96-well U-bottom plates (BD) at a density of 5×10⁴ cells/well, respectively. Testing antibodies were 1:3.16-fold serially diluted in 1% BSA-PBS and incubated with the cells at 4° C. for 1 hr. The secondary antibody, Alexa647 conjugated goat anti-human IgG Fc (Jackson Immunoresearch Lab), was added to resuspended cells and incubated at 4° C. in the dark for 1 hr. The cells were then washed once and resuspended in PBS with 1% BSA, and analyzed by flow cytometery (BD). Fluorescence intensity was converted to bound molecules/cell based on the quantitative beads (Quantum™ MESF Kits, Bangs Laboratories). KD was calculated using Graphpad Prism5.

[27] = target: T6, mouse EGFR (cell surface); experiment: as above
Procedure: as §3

[28] = target: T2, human EGFRvIII (cell surface); experiment: as above
Procedure: as §3

[29] = target: T7, Macaca fascicularis EGFR (cell surface); experiment: as above
Procedure: as §3

[30] = target: T8, human EGFR ECD protein (W562-hPro1.ECD.his) (human, UniProt P00533 25-645); experiment: SPR (ProteOn XPR36), antibody captured by anti-human IgG Fc, EGFR ECD.his as analyte
T8 construct: extracellular domain; Made in HEK293 cells
Procedure: Each antibody was captured on an anti-human IgG Fc antibody immobilized GLM sensor chip (Bio-Rad). W562-hPro1.ECD.his at different concentrations was injected over the sensor chip at a flow rate of 100 uL/min for an association phase of 240 s, followed by 1800 s dissociation. The chip was regenerated by 10 mM glycine (pH 1.5) after each binding cycle. The sensorgrams of blank surface and buffer channel were subtracted from the test sensorgrams. The experimental data was fitted by 1:1 binding model using Langmiur analysis. Molecular weight of 85 kDa was used to calculate the molar concentration of analyte.

[31] = target: T1, human EGFR (cell surface); experiment: cell-based or functional assay

B1: W5626-2C2.VHH (VHH)
VHH: EVQLVESGGGLVQAGDSLRLSCAASGRTHSNYVMGWFRQAPGQEREFVAGISRTYGNTYYRDSVEGRFTISVDNPKNTVYLQMNSLKPEDTAVYYCAADPTRSEVILTTSHRYVYWGQGTLVTVSS
notes: c-Myc and his-tagged VHH fragment made in E. coli BL21; not shown: 6-his and c-Myc tags fused at the C-terminus
IC50 (read off the curve) [1]: ~1 nM
EC50 [2]: 2.41 nM
IC50 (read off the curve) [3]: ~2 nM

B2: W5626-2C2-z22 (VHH) (VHH)
VHH: B1 VHH with A14P, D16G, V72R, P75S, V79L, K87R, P88A
notes: also called c-Myc and his-tagged VHH fragment of W5626-2C2-z22; not shown: c-Myc and his tags
OD A450 [4]: 0.05 OD A450
OD A450 [5]: 0.05 OD A450
OD A450 [6]: 0.07 OD A450
OD A450 [7]: 0.07 OD A450
OD A450 [8]: 0.06 OD A450
OD A450 [9]: 0.05 OD A450
OD A450 [10]: 0.06 OD A450
OD A450 [11]: 0.06 OD A450
OD A450 [12]: 0.07 OD A450
OD A450 [13]: 0.06 OD A450
OD A450 [14]: 0.06 OD A450
OD A450 [15]: 0.06 OD A450
OD A450 [16]: 0.07 OD A450
OD A450 [17]: 0.06 OD A450
binding result [18]: no binding (tested: 10 µg/ml)
binding result [19]: no binding (tested: 10 µg/ml)
binding result [20]: no binding (tested: 10 µg/ml)

B3: W5626-2C2-z22 (humanized VHH of W5626-2C2 further comprising a human Fc of IgG1 isotype) (Fc fusion)
chain: B1 VHH with A14P, D16G, V72R, P75S, V79L, K87R, P88A
notes: Bivalent humanized VHH linked with human IgG1 Fc region; not shown: human IgG1 Fc region from a modified pcDNA3.3 vector
IC50 [21]: 1.35 nM
EC50 [22]: 0.83 nM
EC50 [23]: 0.65 nM
EC50 [24]: 0.25 nM
EC50 (read off the curve) [25]: ~0.9 nM
Bmax [26]: 860 pM
Kd [26]: 1.1 nM
Bmax [27]: 1 nM
Kd [27]: 0.51 nM
Bmax [28]: 530 pM
Kd [28]: 0.24 nM
Bmax [29]: 230 pM
Kd [29]: 0.26 nM
Kd [30]: 3.22 nM
koff [30]: 0.00209 s⁻¹
kon [30]: 649000 M⁻¹ s⁻¹
EC50 of EGFR internalization (Fab-ZAP, viability of A431 cells) [31]: 0.17 nM
IC50 of inhibition of EGFR phosphorylation (pEGFR sandwich ELISA, A431 cells stimulated with EGF) [31]: 22.6 nM and 10.4 nM

B4: W5626-2C10.VHH (VHH)
VHH: AVQLVESGGGLVQAGGSLTLSCAASGRTFSSYAMGWFRQAPGKEREFVAADRWSGGNTRYADSVKGRFTISRDNAKNTVYLQMNSLKPEDTAVYYCAATYLSSDYEWGVPPKAYDYDYWGQGTQVTVSS
notes: as for B1
IC50 (read off the curve) [1]: ~1 nM
EC50 [2]: 1.08 nM
IC50 (read off the curve) [3]: ~1 nM

B5: W5626-2C10-z5 (VHH) (VHH)
VHH: B4 VHH with A14P, V79L, K87R, P88A, Q124L
notes: also called c-Myc and his-tagged VHH fragment of W5626-2C10-z5; not shown: c-Myc and his tags
OD A450 [4]: 0.04 OD A450
OD A450 [5]: 0.05 OD A450
OD A450 [6]: 0.04 OD A450
OD A450 [7]: 0.05 OD A450
OD A450 [8]: 0.04 OD A450
OD A450 [9]: 0.04 OD A450
OD A450 [10]: 0.04 OD A450
OD A450 [11]: 0.05 OD A450
OD A450 [12]: 0.05 OD A450
OD A450 [13]: 0.04 OD A450
OD A450 [14]: 0.05 OD A450
OD A450 [15]: 0.05 OD A450
OD A450 [16]: 0.05 OD A450
OD A450 [17]: 0.04 OD A450
binding result [18]: no binding (tested: 10 µg/ml)
binding result [19]: no binding (tested: 10 µg/ml)
binding result [20]: no binding (tested: 10 µg/ml)
